Results from patent US20220380463A1 (Adimab, published 2022).

Tests used:
[1] = target: T1, Cynomolgus CD3εδ Fc heterodimer (Cy CD3ε Fc / CD3δ Fc-HIS) (cynomolgus, UniProt Q95LI8 22-100); assay: BLI (Octet), IgG on AHC sensor, pH 6.0
T1 chain 1: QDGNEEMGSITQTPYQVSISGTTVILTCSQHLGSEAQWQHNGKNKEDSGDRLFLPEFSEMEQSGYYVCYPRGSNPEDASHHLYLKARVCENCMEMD
T1 chain 2: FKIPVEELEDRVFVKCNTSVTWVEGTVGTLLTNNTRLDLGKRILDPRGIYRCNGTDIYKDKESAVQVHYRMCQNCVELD

[2] = target: T1, Cynomolgus CD3εδ Fc heterodimer (Cy …); assay: BLI (Octet), IgG on AHC sensor, pH 7.4

B1: LAD9964_P01_C07 (ADI-57444) (antibody, V domains shown)
VH: QVQLVQSGAEVKKPGASVKVSCKASGFNIKDYYMHWVRQAPGQRLEWMGWIDLENANTIYDAKFQGRVTITRDTSASTAYMELSSLRSEDTAVYYCARDAYGRYFYDVWGQGTLVTVSS
VL: DIVMTQSPDSLAVSLGERATINCKSSQSLLNARTHKNYLAWYQQKPGQPPKLLIYWASTRESGVPDRFSGSGSGTDFTLTISSLQAEDVAVYYCKQSYSRRTFGGGTKVEIK
B1 was tested, and the koff [1] was 0.000637 s⁻¹, the Kd [2] was 4.71 nM and the koff [2] was 0.00146 s⁻¹. It also gave a kon [2] of 310000 M⁻¹ s⁻¹.
